Assay results as given in US20220288193A1.

Key:
[1] = target: antigen X (known antigen used as control in the ELISA of Table 1); experiment: indirect ELISA, positive control: antigen X coated, anti-X-IgY applied, row A
[2] = target: antigen X (known antigen used as control in the ELISA of Table 1); experiment: indirect ELISA, positive control: antigen X coated, anti-X-IgY applied, row B

Which results are given for “anti-X-IgY (control IgY against antigen X) (antibody)”?
OD [1]: 1.33 OD; OD [2]: 1.43 OD
